Data on two substances can be found in article PMC13036776, “Structural and Kinetic Basis for the Rational Design of Next-Generation β‑Lactamase Inhibitors” (Journal of Medicinal Chemistry, 2026).

The data set deals with O=C(Cc1cccs1)N[C@@H]1C(=O)N2C(C(=O)O)=C(/C=C/c3ccc([N+](=O)[O-])cc3[N+](=O)[O-])CS[C@H]12. The data set can be described thus: purified protein. As to conditions: active site, catalytic S64 acylation (acyl-enzyme), pH 7.2. The format is biochemical, Pseudomonas aeruginosa.

Take “PDC-3 (Pseudomonas-derived cephalosporinase-3, class C β-lactamase AmpC) (Pseudomonas aeruginosa PAO1)”: where the note is “general base K67, R349 anchor”, the Km came to 28 ± 1 µM, the Vmax was 82.2 µM/min, the kcat was 152 ± 15 s⁻¹ and the kcat/Km was 5.4e+06 ± 500000 M⁻¹ s⁻¹.

With “PDC-3 (Pseudomonas-derived cephalosporinase-3, class C β-lactamase AmpC) (Pseudomonas aeruginosa PAO1; R376A/T105A)”, where the note is “general base K67”, the Km came to 10.1 ± 1.5 µM, the Vmax was determined as 55.8 µM/min, the kcat was determined as 85 ± 3 s⁻¹ and the kcat/Km is 8.4e+06 ± 1.3e+06 M⁻¹ s⁻¹.
